For 2 substances, inhibition of HDMEC migration (Transwell, 10 ug/ml TSP-1), inhibition of HDMEC migration in the presence of 10 ug/ml anti-CD36 antibody (clone FA6-152) and inhibition of HDMEC migration (Transwell, TSP-2 conditioned medium) results are on record in US20050171016A1.

The target of this assay is CD36 receptor on human dermal microvascular endothelial cells (HDMEC) (human) (UniProt P16671). The experiment in a line: cell-based or functional assay.
Chain of UniProt P16671 (P16671 2-472): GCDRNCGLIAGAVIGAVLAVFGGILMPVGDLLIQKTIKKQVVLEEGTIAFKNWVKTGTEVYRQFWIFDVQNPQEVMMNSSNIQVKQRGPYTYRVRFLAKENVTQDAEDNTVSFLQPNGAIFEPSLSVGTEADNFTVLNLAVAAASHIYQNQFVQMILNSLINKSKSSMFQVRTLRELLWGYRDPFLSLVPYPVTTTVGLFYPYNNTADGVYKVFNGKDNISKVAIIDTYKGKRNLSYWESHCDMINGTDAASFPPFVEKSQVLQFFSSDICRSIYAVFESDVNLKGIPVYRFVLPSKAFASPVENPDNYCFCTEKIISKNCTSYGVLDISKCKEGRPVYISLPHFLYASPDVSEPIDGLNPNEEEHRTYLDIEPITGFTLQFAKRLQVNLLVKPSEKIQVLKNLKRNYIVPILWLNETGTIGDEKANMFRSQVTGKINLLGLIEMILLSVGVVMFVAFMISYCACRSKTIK

Consider “human thrombospondin-1 (TSP-1) (from UniProt P07996 19-1170)”, for which the inhibition of HDMEC migration (Transwell, 10 ug/ml TSP-1) turned out to be 54% and the inhibition of HDMEC migration in the presence of 10 ug/ml anti-CD36 antibody (clone FA6-152) was 20.8%.

For the substance “mouse thrombospondin-2 (TSP-2) (from UniProt Q03350 19-1172)”, the inhibition of HDMEC migration (Transwell, TSP-2 conditioned medium) came to 54.2% and the inhibition of HDMEC migration in the presence of 10 ug/ml anti-CD36 antibody (clone FA6-152) was determined as 36.1%.
